Results on 17 substances are retold here after US20100279383A1.

Where “and” joins values, the source holds several entries; their conditions need not be identical. Equal entries are not always repeated.

This experiment concerns the target anti-Savinase antibody. Nature of the experiment: ELISA, anti-Savinase antibody binding of the variant against Savinase as reference.
Take “Savinase variant S57P + Y167F + R247Q (from UniProt P29600 1-269) (enzyme)”: the Antibody binding capacity shown as Delta-binding is 3 fold.

“Savinase variant E136R (from UniProt P29600 1-269) (enzyme)” showed an Antibody binding capacity shown as Delta-binding of 2.8 fold.

As to “Savinase variant Y167I + R170L + A194P + N218S (from UniProt P29600 1-269) (enzyme)”, the Antibody binding capacity shown as Delta-binding was found to be 3.2 fold.

“Savinase variant D181N (from UniProt P29600 1-269) (enzyme)” had an Antibody binding capacity shown as Delta-binding of 2.9 fold.

The substance “Savinase variant S57P + R170L (from UniProt P29600 1-269) (enzyme)” gave an Antibody binding capacity shown as Delta-binding of 2.1 fold.

“Savinase variant S57P + R170L + R247Q (from UniProt P29600 1-269) (enzyme)”: the Antibody binding capacity shown as Delta-binding is 2.1 fold and 2 fold.

Turning to “Savinase variant R170L + Q206E (from UniProt P29600 1-269) (enzyme)”, the Antibody binding capacity shown as Delta-binding was determined as 2.1 fold.

The substance “Savinase variant Y167I + R170L + N218S (from UniProt P29600 1-269) (enzyme)” displayed an Antibody binding capacity shown as Delta-binding of 4.8 fold.

The substance “Savinase variant R247H (from UniProt P29600 1-269) (enzyme)” displayed an Antibody binding capacity shown as Delta-binding of 2 fold.

In the case of “Savinase variant R170F (from UniProt P29600 1-269) (enzyme)”, the Antibody binding capacity shown as Delta-binding was found to be 2.4 fold.

Substance “Savinase variant E136R + N140D (from UniProt P29600 1-269) (enzyme)” came in with an Antibody binding capacity shown as Delta-binding of 2.1 fold.

“Savinase variant R247Q (from UniProt P29600 1-269) (enzyme)” registered an Antibody binding capacity shown as Delta-binding of 2 fold.

Substance “Savinase variant N18D (from UniProt P29600 1-269) (enzyme)” registered an Antibody binding capacity shown as Delta-binding of 2 fold.

As for “Savinase variant R247K (from UniProt P29600 1-269) (enzyme)”, the Antibody binding capacity shown as Delta-binding was determined as 2 fold.

The substance “Savinase variant R275E (from UniProt P29600 1-269) (enzyme)” yielded an Antibody binding capacity shown as Delta-binding of 2 fold.

As for “Savinase variant R247E (from UniProt P29600 1-269) (enzyme)”, the Antibody binding capacity shown as Delta-binding was found to be 2 fold.

With “Savinase variant N140D + A172D (from UniProt P29600 1-269) (enzyme)”, the Antibody binding capacity shown as Delta-binding turned out to be 3.8 fold.
